Marks after values point to notes of the source that are not given here. Blank lines part the entries; values can stand above or below the molecule they belong to.
Experiments:
des(1-3)IGF-I = biological target: T1, des(1-3)IGF-I (Homo sapiens, UniProt P05019); assay: BIAcore analysis over des(1-3)IGF-I biosensor surface; assay type: binding; details: 200 nM, 2-h and 4-h incubations with partially purified azurocidin
T1 construct: IGF-I, IGF-II and des(1-3)IGF-I were immobilized on the sensor chip by amine coupling; purchased GroPep (Adelaide, Australia)
T1 sequence (P05019 52-118): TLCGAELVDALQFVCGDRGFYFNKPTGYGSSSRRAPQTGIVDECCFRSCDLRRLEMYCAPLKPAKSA
Experimental: Recombinant pIGFBP-1 was analyzed across a des(1-3) IGF-I biosensor surfaces with a concentration range of 50, 100, 200, 400 nM, at a flow rate of 10 μl/min. The mean sensorgrams are shown for 400 nM IGFBP-1 (intact, n=3) and 200 nM IGFBP-1, intact (0 h, n=4) and after 2-h (n=5) and 4-h (n=3) incubations with partially purified azurocidin in a protease:substrate ratio of 1:3 500 for 2 h at 37 C.
(§1) Instrument and reagents (buffers, chemicals for activating and deactivated) were purchased from BIAcore (Uppsala, Sweden). IGF-I, IGF-II and des(1-3)IGF-I were immobilized on the sensor chip by amine coupling and deactivated with 0.1M ethanolamine. A reference flow cell was also prepared to correct for background and bulk refractive index contribution. After equilibration buffer to achieve a stable baseline, binding experiments was at 22 C in 2 separate experiments with the samples injected in random order. 40 μl of each sample was injected over the sensor surface at a rate of 10 μl/min (association period), followed by a 6 min wash with buffer (dissociation period). The sensor surface was regenerated with 20 μl of 100 mM HCl and washed for 6 min before the next sample. We used a 1:1 Langmuir binding interaction model for kinetic analysis using the BIAcore software and GraphPad Prism (GraphPad Software Inc, San Diego, Calif.).

azurocidin = biological target: T2, azurocidin (Homo sapiens, UniProt P20160); assay: Stability of IGFBP-1 fragments generated in the presence of azurocidin; assay type: biochemical
T2 construct: from tissue
T2 sequence (P20160 27-248): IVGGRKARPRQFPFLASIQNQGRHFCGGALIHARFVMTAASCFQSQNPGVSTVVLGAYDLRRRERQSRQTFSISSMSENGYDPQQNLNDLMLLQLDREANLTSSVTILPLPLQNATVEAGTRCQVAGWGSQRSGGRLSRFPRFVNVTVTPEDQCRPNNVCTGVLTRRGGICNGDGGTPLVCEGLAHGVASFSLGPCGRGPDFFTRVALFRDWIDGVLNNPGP

IGF-II = IGF-II (Homo sapiens, UniProt P01344); assay: BIAcore analysis over IGF-II biosensor surface; assay type: binding; parameters: IGF-I, IGF-II and des(1-3)IGF-I were immobilized on the sensor chip by amine coupling; details: for kd (rate of dissociation, over 261-360 s) / ks (rate of association, over 21-120 s): mean ± SEM
IGF-II, sequence (P01344 25-91 limits assumed): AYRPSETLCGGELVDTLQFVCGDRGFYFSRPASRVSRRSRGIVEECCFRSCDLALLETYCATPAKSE
Experimental: (§2) Recombinant pIGFBP-1 was analyzed across IGF-I (A, C) and IGF-II (B, D) biosensor surfaces. A concentration range of 50, 100, 200, 400 nM was analyzed at a flow rate of 10 μl/min. A,B: Mean sensorgrams for 400 nM IGFBP-1 (intact, n=3) and 200 nM IGFBP-1, intact (0 h, n=4) and after 2-h (n=5) and 4-h (n=3) incubations with partially purified azurocidin in a protease:substrate ratio of 1:3 500 for 2 h at 37 C. C,D: The rate of association (ks), the absolute value of the slope (dRU/dt versus RU) over the linear initial association phase (21-120 s), is shown for pIGFBP-1, intact (closed circles), and after incubation with partially purified azurocidin for 2 h at 37 C (open circles); and
as §1

[1] = system: MCF-7 human breast cancer cells; assay: 3H-Thymidine incorporation; assay type: cell-based
Experimental: Cell studies. MCF-7 human breast cancer cells were maintained in MEM alpha ribonucleic acid-free medium supplemented with 10% foetal bovine serum, 50 Unit/ml penicillin sodium, 50 μg/ml streptomycin sulfate and 2 mM L-glutamine at 37C in 5% CO2 humidified environment.
3H-Thymidine incorporation: Experiments were carried out in 48-well plates, at 70% confluence. After a 20-h incubation in serum-free medium supplemented with 0.1% BSA, the experimental conditions were added for a further 24 h, with ^3H-thymidine (1 μCi/ml) added for the last 4 h. Cells were then washed with ice-cold 0.9% NaCl three times and incubated with ice-cold 5% TCA for 15 min at 22 C. The fixed nucleotides were solubilized in 0.1M NaOH at 22 C and subjected to liquid scintillation counting.
(§3) Statistical analyses. The effect of IGF-II and IGFBP-1 in muscle cell culture was analyzed by two-way ANOVA. Where significant differences were observed, comparisons were made using the Tukey test. In the study using MCF-7 breast cancer cells the Wolcoxon Matched Pairs test was used. Statistical significance was set at P<0.05.

IGF-I [2] = biological target: T3, IGF-I (Homo sapiens, UniProt P05019); assay: BIAcore analysis over IGF-I biosensor surface; assay type: binding; parameters: purchased Kabi Pharmacia (Sweden), donated; details: for kd (rate of dissociation, over 261-360 s) / ks (rate of association, over 21-120 s): mean ± SEM; for predicted maximum response for interaction with IGF-I: based on initial rate of association (21-120 s), proteolysed = 2-h time point
Experimental: as §2, §1
Target sequence in this assay (P05019 49-118 limits assumed): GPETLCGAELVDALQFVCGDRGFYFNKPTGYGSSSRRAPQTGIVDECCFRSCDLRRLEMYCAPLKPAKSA

[3] = system: primary human skeletal myotubes; assay: 2-Deoxyglucose transport (glucose uptake); assay type: cell-based; details: for effect on glucose uptake alone: absence of exogenous IGF-II, 80 ng/ml
Experimental: Primary human skeletal myotubes were incubated under serum-free conditions for 24 h. Glucose uptake was determined as described in the Methods. The results are the mean±SEM of four experiments using cells from different individuals each with 3 replicates; and are expressed as the percentage of uptake in the absence of IGF-II or IGFBP-1 for each. The effect of IGF-II is shown in the hatched bars. The effect of pIGFBP-1 on stimulation of glucose uptake by 10 ng/ml IGF-II was analyzed by 2-way ANOVA for each of the 20 ng/ml and 80 ng/ml concentrations; *, P<0.01, **, P<0.001, compared to no IGF-II; ††, P<0.001, compared to no IGFBP-1 or intact IGFBP-1.
Human skeletal muscle cells were isolated, with approval from the local Ethics Committee, from the muscle biopsies by trypsin digestion and were grown to confluent myoblasts and differentiated into myotubes as previously described in detail (Bouzakri et al, Diabetes, 52, 1319-1325, 2003). Muscle from 4 different subjects were individually minced before being incubated for 30 min in 5 ml of trypsin-EDTA (Invitrogen, Carlsbad, Calif.) at 37° C. under agitation. After being centrifuged (150 g), the pellet was rinsed several times in PBS. Cells were first preplated for 1 h to eliminate rapidly adherent fibroblasts. The remaining cells were then cultured in a growth medium composed of HAM F-10 supplemented with 20% fetal bovine serum (FBS; Invitrogen Stockholm, Sweden), and 1% antibiotics (Invitrogen Stockholm, Sweden). Cells were plated in 6 wells plates and cultured in growth medium at 37° C. until confluence. Differentiation into myotubes was induced by changing the medium to Dulbecco's modified Eagle's medium supplemented with 2% FBS, and 1% antibiotics.
2-Deoxyglucose transport: Glucose uptake was performed as previously described for primary human muscle cells (Bouzakri et al, Diabetologia, 47, 1314-1323, 2004). After 24-h serum starvation, myotubes were pre-incubated with or without IGF-II (10 ng/ml) and IGF-II+IGFBP-1 (intact or cleaved at 20 or 80 ng/ml) for 90 min. IGF-II and IGFBP-1 were mixed 30 min before the experiments. Cells were then washed four times with pre-warmed buffer (150 mmol/l NaCl, […] KCl, 1.2 mmol/l MgSO4, 1.2 mmol/l CaCL2, 2.5 mmol/l NaH2PO4, 10 mmol/l HEPES, pH 7.4) and glucose uptake was measured for 15 min using [3H]2-deoxyglucose (50 μmol/l, 14,800 Bq/well). Results were expressed as the percentage of glucose uptake in the absence of IGF-II or IGFBP-1.
as §3

IGF-I [4] = biological target: T3, IGF-I; details: liver-secreted phosphoprotein, after dephosphorylation; cited from earlier work
Target sequence in this assay (P05019 49-118): as the sequence (P05019 49-118 limits assumed) above

[5] = IGFBP-1 200 nM, proteolysis 2 h
[6] = IGFBP-1 200 nM, proteolysis 2 h by azurocidin
[7] = IGFBP-1 200 nM, proteolysis 4 h
[8] = IGFBP-1 200 nM, proteolysis 4 h by azurocidin
[9] = IGF-I surface, IGFBP-1 200 nM, proteolysis 2 h by azurocidin
[10] = IGF-I surface, IGFBP-1 200 nM, proteolysis 4 h by azurocidin
[11] = IGF-II 10 ng/ml + IGFBP-1 20 or 80 ng/ml
[12] = IGFBP-1 200 nM, proteolysis 0 h
[13] = IGFBP-1 400 nM, proteolysis 0 h
[14] = IGF-I surface, IGFBP-1 200 nM, proteolysis 0 h
[15] = IGF-I surface, IGFBP-1 400 nM, proteolysis 0 h

effect of proteolysis on rate of dissociation from des(1-3)IGF-I (des(1-3)IGF-I): clearly increase | kd rel to IGF-I (IGF-II; [5]): 2.51^‡ | ks rel to IGF-I (IGF-II; [5]): 0.89 | kd (rate of dissociation, over 261-360 s) (IGF-II; [6]): 15.99 ± 0.19 ×10^−4 s^−1 | ks (rate of association, over 21-120 s) (IGF-II; [6]): 15.43 ± 0.58 ×10^−3 s^−1 | kd rel to IGF-I (IGF-II; [7]): 2.39^‡ | ks rel to IGF-I (IGF-II; [7]): 1.01 | rel ks (relative to 200 nM intact pIGFBP-1) (IGF-II; [7]): 2.86*^† | kd (rate of dissociation, over 261-360 s) (IGF-II; [8]): 27.17 ± 0.12 ×10^−4 s^−1 | ks (rate of association, over 21-120 s) (IGF-II; [8]): 12.80 ± 0.08 ×10^−3 s^−1 | kd (rate of dissociation, over 261-360 s) (IGF-I [2]; [9]): 6.40 ± 0.25 ×10^−4 s^−1 | ks (rate of association, over 21-120 s) (IGF-I [2]; [9]): 17.26 ± 0.49 ×10^−3 s^−1 | rel ks (relative to 200 nM intact pIGFBP-1) (IGF-I [2]; IGF-I surface, IGFBP-1 200 nM, proteolysis 4 h): 2.96*^† | kd (rate of dissociation, over 261-360 s) (IGF-I [2]; [10]): 11.36 ± 0.05 ×10^−4 s^−1 | ks (rate of association, over 21-120 s) (IGF-I [2]; [10]): 12.69 ± 0.08 ×10^−3 s^−1 | predicted maximum response for interaction with IGF-I (IGF-I [2]): 1156±16 RU
B1: proteolysed IGFBP-1: phosphorylated IGFBP-1 after incubation with partially purified azurocidin (mixture of N- and C-terminal fragments) (protein)
chain 1: APWQCAPCSAEKLALCPPVSASCSEVTRSAGCGCCPMCALPLGAACGVATARCARGLSCRALPGEQQPLHALTRGQGACVQESDASAPHAAEAGSPESPESTEITEEELLDNFHLMAPSEEDHSILWDAI
chain 2: STYDGSKALHVTNIKKWKEPCRIELYRVVESLAKAQETSGEEISKFYLPNCNKNGFYHSRQCETSMDGEAGLCWCVYPWNGKRIPGSPEIRGDPNCQIYFNVQN
further degradation of IGFBP-1 fragments (azurocidin; 2-h incubation at 45 C): no further degradation | further degradation of IGFBP-1 fragments (azurocidin; 24-h incubation at 37 C): no further degradation | IGF-II-stimulated 3H-thymidine incorporation after addition of IGFBP-1 ([1]; IGF-II 10 ng/ml + pIGFBP-1 90 ng/ml, 6 experiments): no inhibition | effect on IGF-II-stimulated glucose uptake [3, 11]: inhibited in a dose-response manner | inhibitory effect on IGF-II-stimulated glucose uptake compared with intact IGFBP-1 ([3]; IGF-II 10 ng/ml + IGFBP-1 20 or 80 ng/ml, P<0.001): significantly less | effect on glucose uptake alone [3]: stimulated glucose uptake

kd (rate of dissociation, over 261-360 s) (IGF-II; [12]): 3.48 ± 0.40 ×10^−4 s^−1 | ks (rate of association, over 21-120 s) (IGF-II; [12]): 4.47 ± 0.78 ×10^−3 s^−1 | kd (rate of dissociation, over 261-360 s) (IGF-II; [13]): 3.37 ± 0.02 ×10^−4 s^−1 | ks (rate of association, over 21-120 s) (IGF-II; [13]): 8.30 ± 0.13 ×10^−3 s^−1 | kd (rate of dissociation, over 261-360 s) (IGF-I [2]; [14]): 1.46 ± 0.19 ×10^−4 s^−1 | ks (rate of association, over 21-120 s) (IGF-I [2]; [14]): 4.29 ± 0.46 ×10^−3 s^−1 | kd (rate of dissociation, over 261-360 s) (IGF-I [2]; [15]): 1.45 ± 0.02 ×10^−4 s^−1 | ks (rate of association, over 21-120 s) (IGF-I [2]; [15]): 8.21 ± 0.14 ×10^−3 s^−1 | predicted maximum response for interaction with IGF-I (IGF-I [2]): 908±79 RU
B2: intact pIGFBP-1: recombinant human phosphorylated IGFBP-1, intact (protein)
chain: APWQCAPCSAEKLALCPPVSASCSEVTRSAGCGCCPMCALPLGAACGVATARCARGLSCRALPGEQQPLHALTRGQGACVQESDASAPHAAEAGSPESPESTEITEEELLDNFHLMAPSEEDHSILWDAISTYDGSKALHVTNIKKWKEPCRIELYRVVESLAKAQETSGEEISKFYLPNCNKNGFYHSRQCETSMDGEAGLCWCVYPWNGKRIPGSPEIRGDPNCQIYFNVQN
reduction of affinity for IGF-I by dephosphorylation (IGF-I [4]): six fold | inhibition of 3H-thymidine incorporation by pIGFBP-1 alone ([1]; without IGF-II, 4 experiments): 13-33% | effect on IGF-II-stimulated glucose uptake [3, 11]: inhibited in a dose-response manner | effect on glucose uptake alone [3]: no effect

Source: patent publication US20100129344A1, “MEDICAL USES AND THERAPIES BASED UPON THE ACTION OF AZUROCIDIN ON IGFBP-1” (priority 2005, published 2010)
